From article PMC8701324 (2021)

Biological target: MRG15 MRG domain, amino acids 155-323 (UniProt Q9UBU8-2 155-323)
Assay: FP

MRG15 MRG domain, amino acids 155-323, sequence (Q9UBU8 194-362): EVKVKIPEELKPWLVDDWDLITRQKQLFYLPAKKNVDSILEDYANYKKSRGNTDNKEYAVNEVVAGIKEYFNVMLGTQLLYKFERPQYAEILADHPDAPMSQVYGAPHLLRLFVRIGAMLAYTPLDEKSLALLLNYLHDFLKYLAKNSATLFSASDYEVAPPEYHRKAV

## MLSLKQLLSFLSITDFQLPDEDFGPLKLEKVKSC [6xHis-PALB2^597-630]
  Ki: 9.8 nM
